Reference: article PMC6226434

T1: ETA-SmBiT construct (human ETA receptor with SmBiT at the C-terminus) (human) (UniProt P25101)
T1 sequence: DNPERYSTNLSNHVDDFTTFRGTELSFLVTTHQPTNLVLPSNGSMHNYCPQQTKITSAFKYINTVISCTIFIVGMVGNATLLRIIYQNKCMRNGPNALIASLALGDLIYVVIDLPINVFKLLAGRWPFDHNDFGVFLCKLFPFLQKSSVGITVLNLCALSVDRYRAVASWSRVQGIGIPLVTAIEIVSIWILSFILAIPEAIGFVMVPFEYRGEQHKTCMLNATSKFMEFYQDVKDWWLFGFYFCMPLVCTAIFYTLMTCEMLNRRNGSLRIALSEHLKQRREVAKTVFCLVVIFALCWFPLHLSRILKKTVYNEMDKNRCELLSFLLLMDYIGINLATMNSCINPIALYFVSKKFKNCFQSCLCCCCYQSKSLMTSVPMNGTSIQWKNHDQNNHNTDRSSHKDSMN

T2: full-length human ETA receptor construct with an internal FLAG epitope tag (human) (UniProt P25101)
T2 sequence: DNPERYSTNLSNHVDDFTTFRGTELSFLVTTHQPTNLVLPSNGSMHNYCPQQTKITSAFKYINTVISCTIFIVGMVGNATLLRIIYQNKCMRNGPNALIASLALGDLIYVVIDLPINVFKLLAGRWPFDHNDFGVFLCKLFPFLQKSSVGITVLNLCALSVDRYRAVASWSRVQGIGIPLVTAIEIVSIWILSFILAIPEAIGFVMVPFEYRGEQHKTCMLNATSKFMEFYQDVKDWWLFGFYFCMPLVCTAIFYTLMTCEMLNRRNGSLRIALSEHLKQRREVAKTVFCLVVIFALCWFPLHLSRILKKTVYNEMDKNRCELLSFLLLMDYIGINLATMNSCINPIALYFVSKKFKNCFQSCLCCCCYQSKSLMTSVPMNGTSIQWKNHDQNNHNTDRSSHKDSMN


Key:
[1] = target: human ETB receptor L252H I254T double mutant (human) (UniProt P24530)
[2] = target: human ETB receptor, wild type, codon-optimized construct with an internal FLAG epitope tag (human) (UniProt P24530)
[3] = target: ETB-Y5 with SmBiT at the C-terminus (thermostabilized human ETB receptor) (human) (UniProt P24530)
[4] = target: ETB-SmBiT construct (human ETB receptor with SmBiT at the C-terminus) (human) (UniProt P24530)
[5] = target: human ETB receptor, wild type, codon-optimized construct with an internal FLAG epitope tag (human) (UniProt P24530); remark: listed apart in the source
[6] = target: thermostabilized human ETB receptor (ETB-Y5), construct with an internal FLAG epitope tag (human) (UniProt P24530)
[7] = target: T1, ETA-SmBiT construct (human ETA receptor with SmBiT at the C-terminus) (human)
[8] = target: T2, full-length human ETA receptor construct with an internal FLAG epitope tag (human)

Row | AP-TGFα release (TGFα shedding assay), EC50 [1] [nM] | AP-TGFα release (TGFα shedding assay), EC50; experiment with the double mutant [2] [nM] | β-arrestin recruitment (NanoBiT, receptor-SmBiT with m12), EC50 [3] [nM] | β-arrestin recruitment (NanoBiT, receptor-SmBiT with m12), Emax relative to ET-1 [3] [%] | β-arrestin recruitment (NanoBiT, receptor-SmBiT with m12), EC50 [4] [nM] | β-arrestin recruitment (NanoBiT, receptor-SmBiT with m12), Emax relative to ET-1 [4] [%] | AP-TGFα release (TGFα shedding assay), EC50 [5] [nM] | AP-TGFα release (TGFα shedding assay), Emax relative to ET-1 [5] [%] | AP-TGFα release (TGFα shedding assay), EC50 [6] [nM] | AP-TGFα release (TGFα shedding assay), Emax relative to ET-1 [6] [%] | β-arrestin recruitment (NanoBiT, receptor-SmBiT with m12), EC50 [7] [nM] | β-arrestin recruitment (NanoBiT, receptor-SmBiT with m12), Emax relative to ET-1 [7] [%] | AP-TGFα release (TGFα shedding assay), EC50 [8] [nM] | AP-TGFα release (TGFα shedding assay), Emax relative to ET-1 [8] [%] | Molecule
1 | 0.32 | 0.14 | 15.1 | 85.4 | 3.1 | 87.3 | 0.11 | 87.6 | 0.92 | 83.6 |  |  |  |  | IRL1620 (N-Suc-[E9, A11, 15] ET-1(8-21)) (peptide)
2 |  |  | 3.5 | 105 | 3.3 | 105 | 0.13 | 100 | 0.077 | 101 | 10.8 | 81.1 | 0.65 | 101 | CTCFTYKDKECVYYCHLDIIW [endothelin-3]
